Reference: patent US20190248902A1 (published 2019)
Numbering of substitutions follows the chain as printed.

B1: 176H4 (antibody, V domains shown)
VH: QVQLVESGGGVVQPGRSLRLSCAASGFTFSSYGMHWVRQAPGKGLEWVAIIWYDGSYKYYADSVKGRFTISRDNSKNTLYLQMSSLRAEDTAVYYCARDAHDFWSGYFAYWGQGALVTVSS
VL: DIVMTQTPLSLSVTPGQPASISCKSSQSLLHGDGKTYLYWYLQKPGQPPQLLIYEVSNRFSGVPDRFSGSGSGTDFTLKISRVEAEDVGIYYCMQSIQIPWTFGQGTRVEIK
notes: mAb
B2: 191G10 (antibody, V domains shown)
VH: QVQLVESGGGVVQPGRSLRLSCAASGFTFSSYGMHWVRQAPGKGLEWVAVIWYDGSNKNYADSVKGRFTISRDNSKNTLYLQMNSLRAEDTAVYYCARDQGVGYDGLDVWGQGTTVTVSS
VL: DIQMTQSPSSLSASVGDRVTITCRTSQGIGKYLAWFQQKPGKAPKSLLYKVSSLQSGVPSKFSGSGSGTDFTLTISSLQPEDFATYYCQQYMTYPLTFGGGTKVEIK
notes: mAb
B3: 194C1 (antibody, V domains shown)
VH: B2 VH with K58E, N59H, D99N, Q100R, D105Y
VL: B2 VL with T25A, G30S, K31N, L48I, K50A, V51A, Q89L, Q90H, M92L
notes: mAb
B4: 197G3 (antibody, V domains shown)
VH: B2 VH with A23V, Y32H, Q100P, G101S, L107M
VL: DIQMTQSPSSLSASVGDRVTITCRASQGIGNHLAWFQQKPGKAPKSLIYAASSLQSGVPSKFSGSRSGTDFSLTISSLQPEDFATYYCQQYSNYPVTFGPGTKVDIK
notes: mAb
B5: 198G3 (antibody, V domains shown)
VH: B2 VH with R19K, S31T, S56T, Y80C
VL: B2 VL with T5A, V51A, S56G
notes: mAb
B6: 218G4 (antibody, V domains shown)
VH: QVQLVESGGGVVQPGRSLRLSCAASGFTFSSYGLHWVRQAPGKGLEWVAVIWYDGSNKYYADSVKGRFTISRDNSKNTLYLQMNSLRVEDTAVYYCANWYYYYYGMDVWGQGTTVTVSS
VL: QSVLTQPPSVSAAPGQKVTISCSGSSSNIGNNYVSWYQQLPGTAPKLLLYDSNKRPSGIPARFSGSKSGTSATLGITGLQTGDEADYYCGTWDSSLNTVVFGGGTKLTVL
notes: mAb
B7: 193E7 (antibody, V domains shown)
VH: QVQLQQWGAGLLKPSETLSLTCAVYGGSFSGYFWTWIRQPPGKGLEWIGEINHSGSTNYNPSLKSRVTISVDTSKNQFSLKLSSVTAADTAVYYCARDYGADYWGQGTLVAVSA
VL: DIQMTQSPSSLSASVGDRVTITCRASQGIRNDLGWYQQKPGKAPKRLIYSASSLQRGVPSRFSGSGSGTEFTLTISSLQPEDFATYYCLQHKRYPLTFGGGTKVEIK
notes: mAb
B8: 194C10 (antibody, V domains shown)
VH: QVQLQQWGAGLLKPSETLSLTCAVSGGSFRYYYWSWIRQPPGKGLEWFGEINHSGSTNYNPSLKSRVTISIDTSKNQFSLKLRSVTAADTAVYYCARDYGAFDIWGQGTMVTVSS
VL: EIVLTQSPGTLSLSPGERATLSCRASPSVNSGYLAWYQQKPGQTPRLLIFGASSRATGIPDRFSASGSGADFTLTISRLEPEDFAVYFCQQYESSPWTFGQGTKVEIK
notes: mAb
B9: 75G3 (antibody, V domains shown)
VH: QVQLQQWGAGLLKPSETLSLTCAVYGGSLSGSYWSWIRQPPGKGLEWIGEINLSGSTNYNPSLKSRVTISVDTSKSQFSLTLRSVTAADTAVYYCARDYGGLDYWGQGTLVTVSS
VL: EIVLTQSPGTLSLSPGERATLSCRARQNVDSSYLAWYQQKPGQAPRLLIYGASSRATGIPDRFSGSGSGTDFTLTISRLEPEDFAVFYCQQYERSPWTFGQGTKVEIK
notes: mAb

Assays:
[1] = target: T1, human ASGR-1 mutant construct H203 (human, UniProt P07306 1-291); experiment: FACS ratio: 65C12 geomean / this mAb geomean
T1 construct: Arg/Glu scanning: non-arginine residues were changed to arginine; Transiently expressed on CHO-S cells
T1 sequence: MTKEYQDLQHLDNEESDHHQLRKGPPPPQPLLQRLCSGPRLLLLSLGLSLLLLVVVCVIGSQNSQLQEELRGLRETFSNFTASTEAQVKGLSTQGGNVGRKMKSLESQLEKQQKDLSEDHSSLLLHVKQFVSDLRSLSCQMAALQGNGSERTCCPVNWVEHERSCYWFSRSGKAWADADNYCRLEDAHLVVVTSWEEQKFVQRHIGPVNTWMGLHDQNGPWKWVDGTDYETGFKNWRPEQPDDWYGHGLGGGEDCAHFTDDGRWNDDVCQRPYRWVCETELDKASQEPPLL
Summary of the method: (§1)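 Value is the geomean of reference antibody 65C12 divided by that of the test mAb, correcting for construct expression. Binding was measured by flow cytometry on transiently transfected CHO-S cells after 1 h at 4 °C with antibody at 5 ug/ml. Detection used an anti-Fc Alexa 647 secondary, with 7-AAD to exclude dead cells.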

human ASGR-1 (wild type) = target: T2, human ASGR-1 (wild type) (human, UniProt P07306 1-291); experiment: FACS ratio: 65C12 geomean / this mAb geomean
T2 construct: also called wt ASGR1; huASGR-1
T2 sequence: T1 sequence with R203H
Summary of the method: as §1

[2] = target: T1, human ASGR-1 mutant construct H203; experiment: FACS ratio: H203 normalized value / wt normalized value
Summary of the method: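 Transiently transfected CHO-S cells expressing wild-type or mutant hASGR-1 incubated with antibody at 5 ug/ml, 1 h at 4 °C; bound antibody detected by Alexa Fluor 647 anti-Fc plus 7-AAD, by flow cytometry. Binding normalized to expression using an unaffected antibody (65C12), then to wild type; hits defined as >3× IQR above third quartile.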

Binder	Expression Normalization to mAb 65C12 [1]	Expression Normalization to mAb 65C12 (human ASGR-1 (wild type))	Normalization to wt ASGR1 Binding [2]
B1	2.52	1.67	1.5
B2	1.51	1.66	0.912
B3	2.33	2.69	0.868
B4	7.35	4.21	1.75
B5	1.96	2.61	0.75
B6	3.25	4.59	0.707
B7	1.87	1.58	1.18
B8	1.95	1.99	0.978
B9	1.78	1.51	1.18
